Experimental data reported in patent US20230054458A1 (JIANGSU HENGRUI MEDICINE, published 2023).

B1: IMAB-362 (positive control antibody, from WO2016166122) (antibody, human IgG1, kappa, V domains shown)
VH: QVQLQQPGAELVRPGASVKLSCKASGYTFTSYWINWVKQRPGQGLEWIGNIYPSDSYTNYNQKFKDKATLTVDKSSSTAYMQLSSPTSEDSAVYYCTRSWRGNSFDYWGQGTTLTVSS
VL: DIVMTQSPSSLTVTAGEKVTMSCKSSQSLLNSGNQKNYLTWYQQKPGQPPKLLIYWASTRESGVPDRFTGSGSGTDFTLTISSVQAEDLAVYYCQNDYSYPFTFGSGTKLEIKR
B2: humanized antibody h1901-11 (antibody, human IgG1, kappa, V domains shown)
VH: EVQLVESGGGLVQPGGSLRLSCAASGFTFSDYGIHWVRQAPGKGLEWIAYISRGSSTIYYADTVKGRFTISRDNAKNSLYLQMTSLRAEDTAVYYCARGGYDTRNAMDYWGQGTTVTVSS
VL: DIVMTQSPDSLAVSLGERATISCKSSQSLLNSGNQKNYLAWYQQKPGQPPKLLIYGASTRASGVPDRFSGSGSGTDFTLTISSLQAEDVAIYHCQNDLYYPLTFGQGTKLEIKR

Molecular target: human claudin18.2 (Claudin 18.2, Genbank NP_001002026) (human)
Assay: cell-based or functional assay

| Binder | ADCC effect IC50, FcrR3A-V158-NFAT-RE-Jurkat reporter luminescence, NUGC4 cells with high claudin18.2 expression [µg/mL] | ADCC effect IC50, FcrR3A-V158-NFAT-RE-Jurkat reporter luminescence, NUGC4 cells with low claudin18.2 expression [µg/mL] | ADCC effect IC50, FcrR3A-V158-NFAT-RE-Jurkat reporter luminescence, NUGC4 cells with moderate claudin18.2 expression [µg/mL] |
| --- | --- | --- | --- |
| B1 | 0.133 | 0.183 | 0.21 |
| B2 | 0.0262 | 0.0224 | 0.0154 |
